# From the nanobody polyreactivity screen of Harvey et al. (2022)
# Test: yeast display, Sf9 membrane polyspecificity reagent, FACS + sequencing; frameworks hold sequencing errors
# Method in brief: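 Galactose-induced (36–48 hours) yeast carrying a synthetic nanobody display library were exposed to 10% biotinylated, detergent-solubilized Sf9 membrane reagent at 4 °C for 1 hour. FACS followed streptavidin microbead enrichment, using low and high (top ~1%) gates for expression (anti-HA) and reagent binding (streptavidin). Colony PCR, MiSeq 2 × 250 sequencing and CDR-length filtering followed. Labels for polyreactivity reflect the gate of origin.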
row,Sequence,polyreactivity (PSR sort gate)
1,QVQLVESGGGLVQAGGSLRLSCAASGSIIGRYAMGWYRQAPGKERELVAAISTGGGRTYYADSVKGRFTISRDNAKNTVYLQLNSLKPEDTAVYYCNAGPYKGWGRMDYWGQGTQVTVSS,high polyreactivity
2,QVQLVESGGGLVQAGGSLRLSCAASGSIIGTNVMGWYRQPPGKERELVPSISYRDGTTYYADSVKGRFTISRDNAKNTVYLQMNSLKPEDTAVYYFAVANYYSYYWGQGTQVTVSS,low polyreactivity
3,QVQLVESGGGLVQAGGSLRLSCAASGSIIGTYAMGWYRQAPGKERELVAAISSSSTRTYYADSVKGRFTISRDTAKNTVYLQMNSLKPEDTAVYYCAATFTAVRGKYGYWGQGTQVTVSS,high polyreactivity
4,QVQLVESGGGLVQAGGSLRLSCAASGSIIKPYAMGWYRQAPGKERDLVAAIRSSGGRTNYADSVKGRFTISRDNAKNTVYLQMNSLKPEDTAVYYCAALVRVTGTYYTKYDFWGQGNQVTVSS,high polyreactivity
5,QVQLVESGGGLVQAGGSLRLSCAASGSIIPPNAMGWYRQAPGKERELVAGISSGGSTTYADSVKGRFTISRDNAKNTVYLQMNSLKPEDTAVYYCAADVPYGASIISYDYWGQGTQVTVSS,low polyreactivity
6,QVQLVESGGGLVQAGGSLRLSCAASGSIIQQYDKGWYRQAPGKHREFVAANSSSGGSTYYADSVKGRFTISRDNAKNTVYLQMNSLKPEDTAVYYCAVDTKGYTYVDYLHGSGEFGYWGQGTQVTVSS,low polyreactivity
7,QVQLVESGGGLVQAGGSLRLSCAASGSIIQVYAMGWYRQATGKERELVASITRTGGSTYYADSVKGRFTISRDNAKNTVYLLMNSLKPEDTAVYYCAAEKRYYYYVKYWKSDYWGQGTQVTVSS,low polyreactivity
8,QVQLVESGGGLVQAGGSLRLSCAASGSIIRSYTMGWYRQAPGKERELVASISRTGGSTHYADSVKGRFTISRDNAKNTVYLQMNSLKPEDTAVYYCNADTRRNRLMDYWGQGTQVTVSS,high polyreactivity
9,QVQLVESGGGLVQAGGSLRLSCAASGSIISAYAMGWYRQAPGKVREFVASITWSGGSTYYADSVKGRFTISRDNAKNTVYLQMNSLKPEDTAVYDCAAVYVTWYNNYEYWGQGTQVTVSS,high polyreactivity
10,QVQLVESGGGLVQAGGSLRLSCAASGSIISNYVMGWYRQAPGKERELDAAITRRGGRTYYADSVKGRFTISRDNAKNTVYLQMNSLKPEDTAVYYCAAEGYVYTFWDSTDFDYWGQGTQVTVSS,high polyreactivity
11,QVQLVESGGGLVQAGGSLRLSCAASGSIISYYAMGWYRQAPGKERELVAVINSGSTNYADSVKGRFTLSRDNSKNTVYLQMHSLNPEDTAVYYCAAYSLLYLLEQYTTAPYDYWGQGTQVTVSS,low polyreactivity
12,QVQLVESGGGLVQAGGSLRLSCAASGSIITPYTMGWDRQAPGKERELVAAISWSGATTHYADSVKGRFTISRDNAKNTVYLQMNSLKPEDTAVYYCAARWGLRSSRYYYWGQGTQVTVSS,high polyreactivity
13,QVQLVESGGGLVQAGGSLRLSCAASGSIITPYTMGWYRQAPGKERELVAAITGSAGSTYYADSVKGRFTISRDNAKNTVYLQMNSLKPEDTAVYYCAAAVWGVYQWYYYWGQGTQVTVSS,high polyreactivity
14,QVQLVESGGGLVQAGGSLRLSCAASGSIITWYTMGWYRQAPGKERELVAAISWSGGRTYYADSVKGRFTISRDNAKNTVYLQMNSLKPEDTAVYYCAASAYGRPPFDYWGQGTQVTVSS,high polyreactivity
15,QVQLVESGGGLVQAGGSLRLSCAASGSIIVGYAMGWYRQAPGTERELVAAISWSGGRTYYADSVKGRFTISRDNAKNSVYLQMNSLKPEDTAVYYCATVTKGSLRYNYNYWGQGTQVTVSS,high polyreactivity
16,QVQLVESGGGLVQAGGSLRLSCAASGSIIVPYAMGWYRQAPGKERELVAAISSRGGRTYYADSVKGRFTISRDNAKNTVYLQMNSLKPEDTAVYYCNKTAGSHIPRLEYWGQGTQVTVSS,low polyreactivity
17,QVQLVESGGGLVQAGGSLRLSCAASGSIIVRYAMGWYRQAPGKERELVAAITSRGGSTYYAVSVKGRFTISRDNAKNTVYLQMNSLKPEDTAVYYCAAYGDQRSTPAIDKYGGQGTQVTVSS,low polyreactivity
18,QVQLVESGGGLVQAGGSLRLSCAASGSIIVRYAMGWYRQAPGKERELVASISKRGGSTYYADSVKGRFTISRDNAKNTVYLQMNSLKPEDTAVYYCAARVVTRVRGVGYNYWGQGTQVTVSS,high polyreactivity
19,QVQLVESGGGLVQAGGSLRLSCAASGSIIVVYAMGWSRQAPGKERELVAAISWGIGSTYYADSVKGRFTISRDNAKNTVYLLMNILKPEETAVYYCAAVTDIVLYDYWGQGTQVTVSS,low polyreactivity
20,QVQLVESGGGLVQAGGSLRLSCAASGSIIWRNAMGWYRQAPGKERELVAAITWSRGSTFYADSVKGRFTISRDNAKNTVYLQMNSLKAEDTAVYYCAAYGGRRFDYWGQGTQVTVSS,low polyreactivity

row,Sequence,polyreactivity (PSR sort gate)
1,QVQLVESGGGLVQAGGSLRLSCAASGSIIYIYAMGWYRQAPGKERELVAAISSGDRTNYADSVKGRFTISRDNAKNTVYLQMNSLKPEDTAVYYCAARGRGSAAKYNYWGQGTQVTVSS,high polyreactivity
2,QVQLVESGGGLVQAGGSLRLSCAASGSIIYYYAMGWYRQAPGKERELVAAIRGGGSTNYADSVKGRFTISRDNAKNTVYLQMNSLKPEDTAVYYCNADYRNDCGTPLWYAYNYWGQGTQVTVSS,low polyreactivity
3,QVQLVESGGGLVQAGGSLRLSCAASGSILAYYARGWYRQAPGQERELVADIRAGGGNTYYADSVKGRFTISRDNAKNTVYLQMNSLKPEDTAVYYCNADWHFWYKWESYDYDYWGQGTQVTVSS,low polyreactivity
4,QVQLVESGGGLVQAGGSLRLSCAASGSILDGNAMGWYIQAPGKERELVAAISWNGARTYYADSVKGRFTISRDNAKNTVYLQMNSLKPEDTAVFYCAARRGSGKFGKYRGVDYWGQVTQVTVSS,high polyreactivity
5,QVQLVESGGGLVQAGGSLRLSCAASGSILDGNNMGWSRQAPGKERELVAAISWRGGSTYYADSVKGRFTISRDNAKNTVYLQMNSLKPEDTAVYYCNTYHPYWGSGFDYWGQGTQVTVSS,low polyreactivity
6,QVQLVESGGGLVQAGGSLRLSCAASGSILDTNAMGWYRQAPGKERELVARIDIDGSTNYADSVKGRFTISRDNAKNTVYLQMNSLKPEDTAVYYCAADAERHAPKFTYGTYDYWGQGTQVTVSS,low polyreactivity
7,QVQLVESGGGLVQAGGSLRLSCAASGSILDYYAMGWYRQAPGKERELVAAIRVNGGSTYYADSVKGRFTISRDNAKNTVYLQMNSLKPEDTAVYFCAARFSRFRRTRSEYDYWGQGTQVTVSS,high polyreactivity
8,QVQLVESGGGLVQAGGSLRLSCAASGSILEYYAMGWYRQAPGKERELVAGISSAGNTYYADSVKGRFTISRDNAKNTVYLQMNSLKPEDTAVYYCAAVPWSGEYDYWGQGTQVTVSS,low polyreactivity
9,QVQLVESGGGLVQAGGSLRLSCAASGSILFGNAMGWYRQAPGKEMELVAAITVSGGSTYYADSVKGRFTISRDNAKNTVYLQMNSLKPEDTAVYYCAAVSLFRDSQFDYWGQGTQVTVSS,low polyreactivity
10,QVQLVESGGGLVQAGGSLRLSCAASGSILFTNAMGWYRQAPGKERELVAAISSGGSTYYADSVKGRFTISRDNAKNTVYLQMNSLKPEDTAVYYCAADQLNVGREYVEYDYWGQGTQVTVSS,low polyreactivity
11,QVQLVESGGGLVQAGGSLRLSCAASGSILFYAMVWYRQAPGKERELVAAITWRGGSTYYADSVKGRFTISRDNAKNSVYLQMNSLKPEDTAVYYCARDETGRIEGDYWGQGTQVTVSS,high polyreactivity
12,QVQLVESGGGLVQAGGSLRLSCAASGSILGGNAMGWYRKAPGKERELVAAITFSGGGTYYADSVKGRFTISRDNAKNTVYLHMNSLKPEDTAVYYCAADKDGYTYEFDYWGQGTQGTVSS,low polyreactivity
13,QVQLVESGGGLVQAGGSLRLSCAASGSILGINVMGWYRQAPGKERELVAAISRRGGSTYYADSVKGRFTISRDNAKNTVYLQMNSLKPEDTAVYYCAATRTARTMGYCGQGTQVTVSS,high polyreactivity
14,QVQLVESGGGLVQAGGSLRLSCAASGSILGLNAMGWYRQAPGKERELVAAITSRGGSTYYADSVKGRFTISRDNAKNTVYLQMNSLKPEDTAVYYCNREYVRVNYQYWYYAEYDYWGQGTQVTVSS,low polyreactivity
15,QVQLVESGGGLVQAGGSLRLSCAASGSILGLNVMGWYRQAPGTEREVVAAISRRGGSTYYADSVKGRFTISRDNAKNTVYLQMNSLKPEDTAVYYCAATRTARTMGYWGQGTQVTVSS,high polyreactivity
16,QVQLVESGGGLVQAGGSLRLSCAASGSILGLYAMGWYRQAPEKDRELVAASTWSGGSTYYADSVKGRFTISRDNAKNTVYLQMNSLKPEDTAVYYCAALARGYWVVNSLGSYDYWGQGTQVTVSS,high polyreactivity
17,QVQLVESGGGLVQAGGSLRLSCAASGSILGLYAMGWYRQAPGKERELVAAITYRGGRTDYADSVKGRFTISRDNAKNTVYLQMNSLKPEDTAVYYCAAGYLPRPRYSTSYLYYYWGQGTQVTVSS,high polyreactivity
18,QVQLVESGGGLVQAGGSLRLSCAASGSILGLYAMGWYRQAPGKERELVASITSSGSTYYADSVKGRFTISRDNAKNTVYLQMNSLKPEDTAVYYCAARYYYGRRYDYWGQGTQVTVSS,low polyreactivity
19,QVQLVESGGGLVQAGGSLRLSCAASGSILGVYTMGWDRQAPGKERELVAAITSSSSSTYADSVKGRFTISRDNAKNTVYLQMNSVIPEDTAVYYCATRGWSKQLYGGYTQYYYWGQGTQVTVSS,high polyreactivity
20,QVQLVESGGGLVQAGGSLRLSCAASGSILGYNAMGWYRQAPGKEREFVAAITYSGGTTYYADSVKGRFTISRDNAKNTVYLQMNSLKPEDTAVYYCAADYSVYDEFDYWGQGTQVTVSS,high polyreactivity
